From the DeepSol protein solubility set

Test: soluble on expression in E. coli; label from the status in PepcDB or PDB records

Sequence	soluble on expression in E. coli
MSEGSGDQSQQRPWASPRQQPIKGIVQPRVLPPFGKPTRHTNKLDYIMTTVLKEAGKHKHVWPFQKPVDAVALCIPLYHERVARPMDLKTIENRLKSTYYTCAQECIDDIETVFQNCYTFNGKEDDVTIMAQNVHEVIKKSLEQAPREEHDMDVYWGKNKKKPAKSDGGSKSSSSKKNDARGPSEAPSEAGSEVSSVTTASAAAPTVSESASVAAKPERKVAGKKTGKRKAESEDDEKPEPLRAKREVAVVKKEVHQPLLPSMKPCLKLLNDFSTKKYQEFAWPFNEPVDAEQLGLHDYHKIIKEPMDLKSMKAKMESGAYKEPSDFEHDVRLMLRNCFLYNPVGDPVHSFGLRFQEVFDRRWAELGDSSSRASSVAPQSAPIAPTPKVAKSSAPKEPKESRKEHKKETTFEASGAKSEDLMQINNALSMIREREEKLKAELAAAQAIKDKLTSVKNRREDNPNEPFPEKLINETRALCTTQVGQNASSSSASSAALRNGRSKKAASARLYGYEFDSDDEDNKMALTYEEKRNLSNLINNLPNNQLNTIISIIQRRERSALMQQQLDDSEVELDFESLGDMCLREMGAFIKTIPTLNGNGDDEKPKTSSNPTSSGATGSKGSSSLESKNGKKKKNFNMSESSDDETSNSRKRRKRESSESQSSSSSDDDSDDEDRPSIPRKSGQPPSTSREWNQSSAPPPRMGGMGGQPPMSRVPASSSTSVSAIGKNNAAASSNSYRYRCFFVRKLNLKISNKKKWKSKKNSTNLVFRSSKTCTSTSTNIIKTSGSTETTVKTKENGRNQQRRLRLDHQRKANPGMVKTSRPGFRGCGWRQSEPAKKKTKAVSRCQTKWK	not soluble
MNRWEGLDEFVAVAETGQFTAAAERMGVSSSHISRQVARLEERLQTRLLYRSTRRVSLSEAGQTFLQHCQRLQDARDEALRAVSDLSAEPKGLLRMTCAVAYGERFIVPLVNAFMADYPQLRVDIELSNRQLDLLHEGFDLAIRLGRLSDSRLVATRLAPRVMYLCATPEYLRRHGTPQSPAELGQFNCLIGSSDLWSFLEDGRETQHRVQGNWRCNSGQAVLDAALRGFGLCQLPDYYVIEHLRSGRLASLLEGHQPPNTAVWALYPQQRHLSPKVRQLVDYLKEGLAQSHPGLAGEKNLR	not soluble
CFSCLNQKSNLYCLKPTICSDQDNYCVTVSASAGIGNLVTFGHSLSKTCSPACPIPEGVNVGVASMGISCCQSFLCNFS	soluble
SNNWVVSGSLTVSGNPLLANDPHLSLTAPGIWLPIVISSPSYSLAGVTIPGVPLVVIGRNSHVAWGFTNVGSDFTDFYRYQWVDENRYFYKGRIFGVEKSSIEAYVWDPLARSYRVQEISVARTIHGPVIEWQGEKFAVSYTSARPTFEMIFLWLLNKASSVRDALSAQRYFYGPPQNMVVADSAGNIAYSPVGAYPERATLPTIETGYGPIVNTGFLPFDGSAGEGEWRGFKPYSSLPVLFNPPQGFVATANSKPFEDGCWDGLGWDYADRFRTERIYTLLQERSAEEPLDAGDMRDIQLDVEDLGLKTLVSLMVRVASGDGGHVLERYMDMLAEWAENPQMNVDDYKPTLALLASWYFARDFWESLYGSEEHWRFIKLEYAEKALKAYLRGEDWVFNYF	not soluble
MQWETVIGLEIHAQLATQSKIFSGSSTAFGAAPNTQASLVDLAMPGTLPVLNEEAVRMACLFGLAIDARIDRQNVFARKNYFYPDLPKGYQTSQMDHPIVGKGHLDITLEDGTTKRIGITRAHLEEDAGKSLHEDFQGMSGIDLNRAGTPLLEIVSEPDIRSAKEAVAYVKAIHALVRYLGICDGNMAEGSLRCDCNVSVRPKGQAEFGTRAEIKNVNSFRFIEKAINHEIQRQIELIEDGGKVVQETRLYDPNKDETRSMRGKEEANDYRYFPCPDLLPVVIEPEYLAKLREQLPELPVQKRERFESQYGLSAYDASVLSASREMADYFEKVQGICGDAKLAANWVMVELGSLLNKDGLEIEQSPVSAEQLGGMILRIKDNTISGKLAKMVFEAMANGEGSADQIIEAKGLKQVTDSGAIEKMLDEVLAANAEQVEQYRAADEAKRGKMFGFFVGQAMKASKGKANPQQVNELLKKKLEA	not soluble
MAHHHHHHMPLNAQQLLFHLARRNSAPPWRWFPTATENKLFERLDTSGSPTAQVVYSQFVQARLQGSCSAGTAPIQLDLFLDELTPSDDGDYILRCPLANSHLMKRLVVPAPMRIAMHGLLQEVIDVFQQAGIRYWAAGGTLLGAVRHGCIIPWDDDVDLAISVEDELKLRSAFKYPCAHGSDDNIGDNSGDCNSEYSSESSSNEVEKNDGNNGGNLVLEYVPLFGYKVYSRLLPPPFPSPSLPGVGSSCLRYGYFVDIFIMRESKNRFVLARESAQRTWPDEWWHVDELFPLLQKPFAAVAACASEQHPQTALQLSVGRYPLMHLHRLYGETCMQEALIPRELHGRELSHSLRIPLELL	not soluble
AKADSEQGNGEDKGTGTKGDGTGRGEGSGKGSGGVKGEHGEGAGSSKGNPLRANGSIPRPAYPTLSMENDEQGTVVLSVLVSPGGHVESVKIVKSSGFSRLDNAARKAAQNGHFQANAWTEFKVPVKFELN	soluble
MAHHHHHHMRGQSSFSSIGEKPNALRDANDVTPMDTRHLHATCAAEEITHNTGANKKRQRGCRTPLMNAGDGSSIHSATSHQSSQAAHRTADAPSDISNRPTQSSGRAMELIRQRRSTVVRRITDIPALGQSHKEGERCGLINVGAVNVEAENAPSEQFSTFFSFFFFCRTHEQPMNEESCAALLVGILEVAPSTRPRHTRMLRSTLEMNRTPLEMVILGLQKIASRWETKQARPLTKEWLNQPIRSRTDWKERVVFRLVWITASRLFEIVALTPKNVTLEPNGTLILYWPVAPKTARADPHCASRFVGMRGQDAFDIIKLCMTL	not soluble
MCMPTKKYTEKFKISLVYLYRKGTSKQTLEDFGVSSASLSRWIKWYDVTDVDLNEAANILQMYELKKQKDKLEAEVLELTKAIQLFNSDLNTVLEHHHHHH	soluble
MSDNYKFFRHDNCEYFPCHKVKDKETFNCLFCYCPLYFLENCGGNKSDFNGVKDCSNCLIPHSKNGYDYIINKIREVNKEKRAKNNLTLEHHHHHH	soluble
MGSDKIHHHHHHMNDEVSKNISLSDFEPYFKEDYFREDYFYFDNAVNSPETSDRQAGVIWNLLSLGQGSSVLELGCGYGRITNRLAKKGAHVVGLDISPILLKEAETDAAERGVKVEYVLGDMRSLPWRDRFDAAFLWYTTFGYFDDADNERVLREAASSLRKGGRLLIDHPNRIDFLRHKSPVCYVTQRNNDVRIDMFSNDVLSDRSNLERLIVRDGCVRRTHLSFRQYGVSEYVRMLRSAGFETVEAYGQEGEAFTSDSSRLVVVACK	not soluble
MQTENKTSPYYRTKLRGLYTTAKADAEAECSILRRALDKIAEIKSLLEERRIAARMAGVYSDNDPPRKTMRRGVLMTLLQQSAMTLPLWIGKPGESPPPLCGAIPASSDYVAKQGDKVAARVKAVDGDEQWILAEVVSYNHSTNKYEVDDIDEEGKERHTLSRRRIIPLPQWEANPETDPEALFSKDQLVLALYPQTTCFYRALIHTPPHRPQDDYSVLFEDTSYADGYSPPLNVAQRYVVACKENKKK	not soluble
MHMELRMVGRLSWITLFTLFLVGCSSAPDDSSPHSQVNDPLESFNRQMWTINYDYLDPYVVRPVSLFYVGYVPKPVRSGIANFLSNLDEPASMVNNLLMGNGTKAVDHFNRFWINTSFGLLGLIDIASEAGIKKYDDKAFSDAVGHYGVGNGPYLMVPGYGPYTVREVTDVVDGMYFPLAYLNIWAGVGKWALEGMETRAALVSQEALLQDSPDPYSLARDAYLQRQAFKAEIQVDDYDPEEEEYLDEYLNEGL	not soluble
MGSDKIHHHHHHMRPVDKGKDLGSFKPYNKACAPLQDRLGEYCSYCERWIAAAIEVEHILPKKANPSQKYRWSNFLLACKNCNTGKGSDQIIVTDYLWPDLDNTFLAFCYDDEGRAYPNPRLPPAILEKAKATWTLTNLNWHPDTTFTGMVAPSEKDHRHSHRKQAWIYASDKRNQLLQYDTPDRRVSVAKDALQRGMFSVWMTVFNTTSELDREIRRLLIENFVGTATNCFDRLGNAHRSSTGQI	not soluble
MENSRLMQSMPRTPKFEEEKKTDKDKEKEEKERNGKKTELARAQNKKAQEKDMPRFKQGENQIDTATETYELTSELGQGSFGAVFGVTRKSDKRHFAMKCESVNMKRAILPHEAGVLLALNHLKSPHFLEMVDHGIVNNRFLFVVLKLVGMNLWDMRAHLPDKKYTLTTTLRIAEQTLAGLRDLHRVGFLHRDIKPPNFAIGREEDDTYHTVFLLDFGLCRKIAMKGKDLRTPRKECAFRGTTRYAALAAHDNKEQSRKDDIESWWYMIAEMIVFDIPWKQFRGTDRDNVRGMKWRLRADETYFKFLFRKCCYEQMSAILLYLDQLSYSSIPDYDFVYHHLQAAAIVNNCSAKSPPDWDPKSQHYKGPIYKEREPYIVKSLE	not soluble
MGSDKIHHHHHHMSSWEQRSHYLIEVAQRSLIGHKTFDLCRSHLVAASQISKGTIYNHFTTEADLVVAVACAEYEEWLAAAKRDMQRYPDPLTRFLYHHCYRLHQMLSQQRYVIERVMPNQALLLQATDSYRQRFEKISTEYNHWNRLTISEIGDIPGFNRAELVKDYLRGAMINSDDANRQADDVQLYCQFSYALSQLMGHSDKRIPTKPAFVHWLSHLPSTSAISAV	not soluble
MGHHHHHHSHMLSHFETNSALLEQLSELQGSTEPFLTEHPHMAAEHTVNWLTIAALSSAIDKNEEKLAALSEKCVVFQLFLASATGQKQFFKKFEVSENLDEVKAFKSRMRSRAQAKGEKPEKINLNQGTVDSRQFLEELKQLENLKKVRFIGKFVRKLILIVKFKFYE	not soluble
MDKQHFKLWYFQFRGRAEPIRLLLTCAGVKFEDYQFTMDQWPTIKPTLPGGRVPLLDVTGPDGKLRRYQESMAIARLLARQFKMMGETDEEYYLIERIIGECEDLYREVYTIFRTPQGEKEAKIKEFKENNGPTLLKLVSESLESSGGKHVAGNRITLGDLFLFTTLTHVMETVPGFLEQKFPKLHEFHKSLPTSCSRLSEYLKKRAKTPF	soluble
KDQIPIILIHGSGGNASSLDKMADQLMNEYRSSNEALTMTVNSEGKIKFEGKLTKDAKRPIIKFGFEQNQATPDDWSKWLKIAMEDLKSRYGFTQMDGVGHSNGGLALTYYAEDYAGDKTVPTLRKLVAIGSPFNDLDPNDNGMDLSFKKLPNSTPQMDYFIKNQTEVSPDLEVLAIAGELSEDNPTDGIVPTISSLATRLFMPGSAKAYIEDIQVGEDAVHQTLHETPKSIEKTYWFLEKFKTDETVIQLDYK	soluble
MGSDKIHHHHHHMAVSSNGGAIKAVIYDCDGVMFDSFEANLAFYQRIMEMMGRPRLSRDNEEQMRILHTYANREVLAHFFPSPGDWEEAVRCAGAIDYRELVPLMIMEEGFREALDTLKGRVGLGVCTNRSTSMDMVLRLFSLDSYFSIVMTASRVTNPKPHPEPLLKVLEHFGIGPREALFVGDSEVDRLSAEAAGVPFVAYKAPLPAAYRMEHHREIIDLLG	not soluble
MGSDKIHHHHHHMTTEIRALYTRLPAIDRLLRDPAFSPLLAQHGHSQVVAQLRQMLDEAREQISQRQTLPDWSHDWQHACEQRLTAGQRSALRPVFNLTGTVLHTNLGRAIQAESAVEAVASAMRAPVTLEYDLDDAGRGHRDRAIADLLCQITGAEDACIVNNNAAAVLLMLAATASGREVVVSRGELVEIGGAFRIPDVMRQAGCQLHEVGTTNRTHAKDYRQAVNDNTALLMKVHTSNYSIEGFTKAVDEAELAAIGRELDVPVVADLGSGSLVDLSQYGLPKEPMPQEMIAAGVSLVSFSGDKLLGGPQAGIIVGKRALIAQLQSHPLKRALRADKMTLAALEATLRLYQHPEALREKLPTLRLLTRPAEEIRRLAERLQPDLAAHYADFAVSVAACQSQIGSGSLPVDRLPSAALTFTPHDGRGSRLEALAARWRALPCPVIGRIYDGRLWLDLRCLEDETRFMEMLLR	not soluble
